Data from patent publication US10119137B2, “Methods used to treat cancer” (THE TRANSLATIONAL GENOMICS RESEARCH INSTITUTE, priority 2015, dated 2018).

Key:
Assay type in all cases: cell-based, Human
U87 glioma cells = experiment: Histone H2A.X phosphorylation immunoblot after TMZ; conditions: U87, TMZ 500 μM, control or SGEF depleted conditions
Experimental: (§1) For immunoblotting, cells were lysed in 2×SDS sample buffer (0.25 M Tris-HCl, pH 6.8, 10% SDS, 25% glycerol) containing 10 μg/mL aprotinin, 10 μg/mL leupeptin, 20 mM NaF, 2 mM sodium orthovanadate, and 1 mM phenylmethylsulfonyl fluoride. Protein concentrations were determined using the BCA assay (Pierce) with bovine serum albumin as a standard. Thirty micrograms of total protein were loaded per lane and separated by SDS PAGE. After 4° C. transfer, the nitrocellulose (Invitrogen) was blocked with either 5% nonfat milk or 5% BSA in Tris-buffered saline, pH 8.0, containing 0.1% Tween 20 (TBST) prior to addition of primary antibodies and followed with peroxidase-conjugated anti-mouse IgG or anti-rabbit IgG. Protein was detected using SuperSignal West Dura Chemiluminescent Substrate (Thermo Scientific) with a UVP BioSpectrum 500 Imaging System (Upland, Calif.). Densitometry was calculated via Image J software.

[1] = tested on: T98G and U118 glioma cells; experiment: TWEAK stimulation: SGEF mRNA (qPCR) and protein (western blot) expression; conditions: TWEAK 100 ng/mL, increase apparent within two hours
Experimental: Human astrocytoma cell lines U87, U118, and T98G (American Type Culture Collection), as well as primary glioblastoma xenograft cells (GBM & GBM TMZ-R lines) were maintained in DMEM (Gibco, USA) supplemented with 10% heat-inactivated fetal bovine serum (FBS; Gibco, USA) at 37° C. with 5% CO2. For all assays with TWEAK treatment, cells were cultured in reduced serum (0.5% fetal bovine serum) for 16 h before stimulation with recombinant TWEAK at 100 ng/mL in DMEM+0.1% bovine serum albumin for the indicated times.
as §1, with “After 4° C. transfer, the nitrocellulose (Invitrogen) was blocked with either 5% nonfat milk or 5% BSA in Tris-buffered saline, pH 8.0, containing 0.1% Tween 20 (TBST) prior to addition of primary antibodies and followed with peroxidase-conjugated anti-mouse IgG or anti-rabbit IgG.” left out, “software. […]” for “software.”

[2] = tested on: SGEF promoter NF-κB p65 consensus sequence; experiment: Biotinylated electrophoretic mobility shift assay, NF-κB binding site of the SGEF promoter; conditions: T98G nuclear proteins 2 hours after TWEAK 100 ng/mL
Experimental: T98G glioma cells were plated at a density of 3×10^6 in 100 mm^2 tissue culture dishes in normal growth medium. After 12 h, cells were cultured under reduced serum (0.5% FBS) for an additional 16 h before TWEAK (100 ng/mL) addition for 2 h. Isolation of cell nuclear protein was carried out using the NE-PER kit (Pierce) according to the protocol of the manufacturer. Protein-DNA complexes were detected using biotin end-labeled double-stranded DNA 23-mer probes containing the NF-κB binding sites within the SGEF promoter (NF-κB-SGEF wt target sequence: 5′-GTCTAGGAGGCAAATCCCAGAAA-3′ (SEQ ID NO:5); NF-κB-SGEF mt target sequence: 5′-GTCTAGGAGCCAGATCGCAGAAA-3′(SEQ ID NO:6)). The binding reactions were done using the LightShift kit (Pierce) according to the protocol of the manufacturer. Where indicated, 200-fold molar excess of unlabeled NF-κB-SGEF wt oligonucleotides or anti-p65 antibody was included. The reaction products were resolved by gel electrophoresis and detected by chemiluminescence according to the protocol of the manufacturer (Pierce).

| Molecule | time to phosphorylation of H2A.X after TMZ treatment (U87 glioma cells) [min] | SGEF mRNA levels [1] | SGEF protein levels [1] | NF-κB binding to the SGEF promoter region [2] |
| --- | --- | --- | --- | --- |
| Cn1nnc2c(C(N)=O)ncn2c1=O [TMZ, temozolomide] | ≤ 30 | – | – | – |
| TWEAK: Human recombinant TWEAK, tumor necrosis factor-like weak inducer of apoptosis, cytokine ligand of Fn14 (protein) SAPKGRKTRARRAIAAHYEVHPRPGQDGAQAGVDGTVSGWEEARINSSSPLRYNRQIGEFIVTRAGLYYLYCQVHFDEGKAVYLKLDLLVDGVLALRCLEEFSATAASSLGPQLRLCQVSGLLALRPGSSLRIRTLPWAHLKAAPFLTYFGLFQVH | – | increased | increased | NF-κB binds to the SGEF promoter region |
